Test results: patent publication US7264809B1, “Methods of inhibiting platelet activation and recruitment” (Immunex Corporation, priority 1998, dated 2007)

How the values were obtained:
[1] = TLC assay for ADPase activity; format: biochemical
Description: (§1) Following growth in selective medium, CM from CHO cell cultures was analyzed for ATPase and ADPase activities. ADPase assays (Marcus et al., J. Clin. Invest. 88:1690, 1991) were primarily used in determining enzyme kinetics and pharmacokinetics. Test samples were incubated with 50 μM [^14C] ADP (NEN Life Science Products) in assay buffer (15 mM Tris, 134 mM NaCl, 5 mM glucose, pH 7.4, containing 10 μM Ap5A (P^1,P^5-di[adenosine-5′]pentaphosphate, 1 mM ouabain, 10 μM dipyridamole, and 3 mM CaCl2) in a total volume of 50 μl (5 min, 37° C.). Reactions were stopped by placement on ice and addition of 10 μl “stop solution” (160 mM disodium EDTA, pH 7.0, 17 mM ADP, 0.15 M NaCl) to block further metabolism of ADP. Nucleotides, nucleosides, and bases were separated by TLC using isobutanol/1-pentanol/ethylene glycol monoethyl ether/NH4OH/H2O (90:60:180:90:120). Radioactivity was quantified by radio TLC scanning (RTLC multiscanner; Packard, Meriden, Conn.). Results were calculated as averages of duplicate to quadruplicate measurements after subtraction of buffer blanks (consistently <1% of total radioactivity). Data were expressed as percentage of ADP metabolized or as pmol ADP metabolized per minute per μl CM. A unit of activity is the quantity of enzyme which will degrade 1 μmol of ADP in 1 min at 37° C. Identical assays were performed using ATP as a substrate in order to examine the kinetics of the ATPase activity of CD39.
(§2) Using the TLC assay system described in Example 12B, the ADPase activity of the membrane-bound HUVEC ecto-ADPase was determined at different pHs in buffers containing 100 mM bis-trispropane (Sigma, St. Louis, Mo.). […] Kinetic constants for CD39 metabolism of ATP and ADP were determined by measuring the initial rates of reaction as analyzed in the TLC system.

[2] = TLC assay for ATPase activity; format: biochemical
Description: as §1, §2

[3] = design: species or system Balb/c mice; settings: mouse, in vivo, iv
Description: At various times after injection (5, 10, 30 min, 1, 2, 4, 8, 24 h), pairs of mice were bled by cardiac puncture and euthanized. Serum was prepared from each blood sample and frozen until assay. […] The data were fit using […], Monterey, Calif.). The best fit was derived using double exponential decay. Where indicated, specificity of enzyme activity was determined by incubating serum samples with anti-CD39 mAb-coated beads to remove CD39 prior to testing for ATPase activity.

platelets [4] = assay: ADP-induced platelet aggregation after solCD39 bolus in pigs; format: in vivo, Yorkshire-Hampshire pigs; settings: high dose solCD39
Description: Aspirin was administered orally on a daily basis. Placebo controls consisted of aspirin. Saline controls and solCD39 were administered as a single bolus. Time points were measured following this administration. Blood samples were obtained via an external jugular vein catheter. […] ADP-induced platelet aggregation was measured at specific time intervals following administration. The concentration of CD39 in serum as a function of time was measured using an ELISA assay.

platelets [5] = assay: Ex vivo additive inhibition of platelet aggregation in patient platelet rich plasma; format: cell-based, human
mouse platelets = assay: Reversal of ADP-induced aggregation of mouse platelets in vitro; format: cell-based; settings: 5 μM ADP; soluble CD39 2.5 or 1.25 μg/ml
Description: ADP (5 μM) was added to mouse platelets in vitro to induce an aggregation response. Soluble CD39 (2.5 μg/ml or 1.25 μg/ml) was added at the peak of the aggregation response.

Bleeding time in mice = format: in vivo; settings: aspirin 5 mg/kg; increasing doses of solCD39 (4, 8, 20 mg/kg)
Excerpt: (*p<0.05, ^‡p<0.01, ^†p<0.001).
Hematological profiles, including erythrocyte parameters, platelet counts, leukocyte counts and differentials, and coagulation screening, were normal. […] Under those conditions, the defect was abolished and normal blood fluidity was restored by administration of soluble CD39.

B1: solCD39: recombinant soluble human CD39, untagged: 12 mature huIL2 residues, three amino acid linker, sol CD39 (SEQ ID NO:7) (protein)
chain: MALWIDRMQLLSCIALSLALVTNSAPTSSSTKKTQLTSSTQNKALPENVKYGIVLDAGSSHTSLYIYKWPAEKENDTGVVHQVEECRVKGPGISKFVQKVNEIGIYLTDCMERAREVIPRSQHQETPVYLGATAGMRLLRMESEELADRVLDVVERSLSNYPFDFQGARIITGQEEGAYGWITINYLLGKFSQKTRWFSIVPYETNNQETFGALDLGGASTQVTFVPQNQTIESPDNALQFRLYGKDYNVYTHSFLCYGKDQALWQKLAKDIQVASNEILRDPCFHPGYKKVVNVSDLYKTPCTKRFEMTLPFQQFEIQGIGNYQQCHQSILELFNTSYCPYSQCAFNGIFLPPLQGDFGAFSAFYFVMKFLNLTSEKVSQEKVTEMMKKFCAQPWEEIKTSYAGVKEKYLSEYCFSGTYILSLLLQGYHFTADSWEHIHFIGKIQGSDAGWTLGYMLNLTNMIPAEQPLSTPLSHST
[1]; 2×10^−9 M solCD39
  Vmax for ADP: 72 pmol/min
  kcat (ADP): 12 s⁻¹
[1]; purified recombinant solCD39
  specific activity for ADP: 11 U/mg
[2]; 2×10^−9 M solCD39
  Vmax for ATP: 26 pmol/min
  kcat (ATP): 4.33 s⁻¹
[2]; purified recombinant solCD39
  specific activity for ATP: 4 U/mg
[3]
  apyrase activity cleared from the circulation during distribution phase: 55-65%
[3]; 50 ug
  t1/2α (distribution phase), ADPase assay: 43 min
  t1/2α (distribution phase), ATPase assay: 59 min
Platelets [4]
  inhibition of platelet aggregation at two weeks: 30%
Platelets [5]; SolCD39 10 μg/ml, ADP, Abciximab group
  Platelet aggregation: 0 ± 0 arbitrary units
Platelets [5]; SolCD39 10 μg/ml, ADP, Aspirin group
  Platelet aggregation: 4 ± 2 arbitrary units
Platelets [5]; SolCD39 10 μg/ml, ADP, Clopidogrel group
  Platelet aggregation: 5 ± 2 arbitrary units
Platelets [5]; SolCD39 10 μg/ml, ADP, Placebo group
  Platelet aggregation: 0 ± 0 arbitrary units
Platelets [5]; SolCD39 10 μg/ml, ADP, Ticlopidine group
  Platelet aggregation: 10 ± 2 arbitrary units
Platelets [5]; SolCD39 10 μg/ml, Collagen, Abciximab group
  Platelet aggregation: 0 ± 0 arbitrary units
Platelets [5]; SolCD39 10 μg/ml, Collagen, Aspirin group
  Platelet aggregation: 21 ± 4 arbitrary units
Platelets [5]; SolCD39 10 μg/ml, Collagen, Clopidogrel group
  Platelet aggregation: 31 ± 9 arbitrary units
Platelets [5]; SolCD39 10 μg/ml, Collagen, Placebo group
  Platelet aggregation: 75 ± 2 arbitrary units
Platelets [5]; SolCD39 10 μg/ml, Collagen, Ticlopidine group
  Platelet aggregation: 48 ± 18 arbitrary units
Platelets [5]; SolCD39 10 μg/ml, TRAP, Abciximab group
  Platelet aggregation: 22 ± 10 arbitrary units
Platelets [5]; SolCD39 10 μg/ml, TRAP, Aspirin group
  Platelet aggregation: 38 ± 7 arbitrary units
Platelets [5]; SolCD39 10 μg/ml, TRAP, Clopidogrel group
  Platelet aggregation: 35 ± 1 arbitrary units
Platelets [5]; SolCD39 10 μg/ml, TRAP, Placebo group
  Platelet aggregation: 70 ± 3 arbitrary units
Platelets [5]; SolCD39 10 μg/ml, TRAP, Ticlopidine group
  Platelet aggregation: 19 ± 6 arbitrary units
Platelets [5]; SolCD39 100 μg/ml, ADP, Abciximab group
  Platelet aggregation: 0 ± 0 arbitrary units
Platelets [5]; SolCD39 100 μg/ml, ADP, Aspirin group
  Platelet aggregation: 1 ± 0 arbitrary units
Platelets [5]; SolCD39 100 μg/ml, ADP, Clopidogrel group
  Platelet aggregation: 0 ± 0 arbitrary units
Platelets [5]; SolCD39 100 μg/ml, ADP, Placebo group
  Platelet aggregation: 0 ± 0 arbitrary units
Platelets [5]; SolCD39 100 μg/ml, ADP, Ticlopidine group
  Platelet aggregation: 2 ± 2 arbitrary units
Platelets [5]; SolCD39 100 μg/ml, Collagen, Abciximab group
  Platelet aggregation: 0 ± 0 arbitrary units
Platelets [5]; SolCD39 100 μg/ml, Collagen, Aspirin group
  Platelet aggregation: 16 ± 4 arbitrary units
Platelets [5]; SolCD39 100 μg/ml, Collagen, Clopidogrel group
  Platelet aggregation: 21 ± 6 arbitrary units
Platelets [5]; SolCD39 100 μg/ml, Collagen, Placebo group
  Platelet aggregation: 57 ± 5 arbitrary units
Platelets [5]; SolCD39 100 μg/ml, Collagen, Ticlopidine group
  Platelet aggregation: 37 ± 15 arbitrary units
Platelets [5]; SolCD39 100 μg/ml, TRAP, Abciximab group
  Platelet aggregation: 22 ± 9 arbitrary units
Platelets [5]; SolCD39 100 μg/ml, TRAP, Aspirin group
  Platelet aggregation: 26 ± 5 arbitrary units
Platelets [5]; SolCD39 100 μg/ml, TRAP, Clopidogrel group
  Platelet aggregation: 23 ± 3 arbitrary units
Platelets [5]; SolCD39 100 μg/ml, TRAP, Placebo group
  Platelet aggregation: 65 ± 4 arbitrary units
Platelets [5]; SolCD39 100 μg/ml, TRAP, Ticlopidine group
  Platelet aggregation: 18 ± 7 arbitrary units
Mouse platelets
  aggregation response when added at the peak: immediately reversed
Bleeding time in mice
  bleeding times: markedly increased
